Reference: the Human Domainome abundance scans (Beltran et al. 2025)

B1: KAT8 regulatory NSL complex subunit 2, residues 28 to 91; numbered along this chain, Q9H9L4 (parent)
chain: CAFTHRPCSHPRLEGQEFCIKHILEDKNAPFKQCSYISTKNGKRCPNAAPKPEKKDGVSFCAEH

Variants of: B1
Assay: abundance fitness (aPCA) (normalised: wild type 0, dead -1); higher = more abundant; growth selection in yeast, the domain comes from the species named
Settings: Homo sapiens

Abundance fitness of substitutions, site by site:
P30: N -0.178; L -0.188; T -0.184; K -0.156; I -0.162; C -0.275; H -0.253; Q -0.279; E -0.251; F -0.368; G -0.074; R -0.198; M -0.261; D -0.155; V -0.256; W -0.514; S -0.136; Y -0.335
L24: N -0.348; M -0.093; K -0.261; C -0.129; F -0.195; H -0.227; P -0.134; G -0.098; Y -0.168; I -0.2; S -0.12; Q -0.147; A -0.144; E -0.234; R -0.164; D -0.13
D26: Y -0.223; W -0.347; N -0.081; R -0.175; V -0.16; E -0.157; I -0.072; Q -0.18; M -0.195; T -0.069; G -0.197; K -0.177; A -0.084; C -0.097; F -0.245; S -0.117
K32: F -0.305; R -0.041; S -0.093; A -0.075; D -0.136; E -0.026; Y -0.194; N -0.073; C -0.146; H -0.185; P -0.211; T -0.177; I -0.135
E25: L -0.098; F -0.065; D -0.188; T -0.127; W -0.131; Y -0.05; R -0.099; V -0.069; H 0.053; C -0.223; I -0.171; A -0.132; K -0.23; M -0.092; N -0.203; G -0.063; S -0.111; P -0.356
K21: P -0.904; F 0.048; V -0.117; G -0.121; M -0.159; E -0.085; T -0.157; L -0.127; H -0.005; Q -0.117; C -0.119; W -0.173; R -0.058; D -0.149; A -0.057; N -0.125; S -0.125; Y -0.227; I -0.251
Q33: C -0.255; M -0.062; A 0.011; L 0.004; N -0.11; K -0.05; V -0.03; G -0.142; I -0.124; D -0.238; F -0.217; P -0.036; E -0.049; Y -0.071; T 0.017; R -0.081; S -0.182
C34: E -0.185; T -0.71; I -0.56; K -0.484; F -0.664; H -0.453; R -0.578; A -0.446; N -0.33; W -0.674; V -0.541; Y -0.604; S -0.321; G -0.339; Q -0.41; P -0.346; M -0.542
F31: N -0.323; T -0.21; I -0.391; W -0.116; S -0.179; H -0.261; L -0.188; G -0.1; P -0.183; K -0.195; A -0.197; V -0.248; M -0.175; R -0.203; Y -0.195
S35: W -0.169; Y -0.113; C 0.003; P -0.177; Q -0.103; N -0.117; A -0.04; L -0.14; H -0.333; G -0.047; R -0.105; I -0.177; K -0.046; T -0.104; V -0.031; D -0.057; E -0.014; F -0.012
